Laboratory results published in patent US8252338B2, “Synthetic LDL as targeted drug delivery vehicle” (The Regents of the University of California, priority 2005, dated 2012).

Tests used:
[1] = Peptide association with lipid microemulsion after dialysis; assay type: physicochemical; settings: 1.27 mg/ml peptide; PL:TO:CO 3:2:1; after extensive dialysis against Tris-saline buffer
Experimental: The 18-A chimera was utilized for making core-containing synthetic LDL. The procedure reported by Baille et al. (Baillie, G. et al., J Lipid Res 43:69-73 (2002)) was used with modifications. Microemulsions were formed using egg yolk phospholipid (PL), triolein (TO) and cholesteryl olein (CO) (mole ratio of 3:2:1) and 20 μM butylhydroxytoluene (BHT); the microemulsions were extruded through an Avanti miniextruder first using 100 nm polycarbonate filters followed by 30 nm polycarbonate filters. The lipid emulsions were incubated with 1.27 mg/ml 18-A chimera and lipid association determined after extensive dialysis against Tris-saline buffer to remove uncomplexed peptide. Approximately 85% of the added synthetic peptide remained associated with the lipid emulsions.
Characterization: Composition of particles was determined using the Markwell modification of the Lowry protein assay and enzymatic colorimetric assays for PL, TO and CO (Wako Kits). Size was determined by column chromatography using a Superose 6 fast protein liquid chromatography (FPLC) column. Samples were run at a flow rate of 0.5 mL/min and absorbance read at 280 nm. Referring now to FIG. 4, the composition of the synthetic LDL was characterized as 32% peptide, 68% lipid. 82%±9% of peptide (n=11) remained bound after dialysis. […]

[2] = Density distribution of lipidated 18-A chimera by sequential ultracentrifugation; assay type: physicochemical
Experimental: Studies were carried out to determine (1) whether the synthetic LDL represent a single population of particles and (2) whether the LDLR binding domain remains accessible after the peptide is associated with the lipid. To determine what types of synthetic LDL particles were generated, the lipidated 18-A chimera was subjected to sequential ultracentrifugation at density (d) 1.063 g/ml to isolate particles equivalent to, or less dense than, native LDL. Subsequently the solution was adjusted to d 1.21 g/ml to isolate particles in the d 1.063-1.21 g/ml range and those in the d>1.21 g/ml range. The latter particles are considered lipid-poor complexes while the d 1.063-1.21 particles are in the size and density range of high density lipoproteins (HDL). […] This was an unexpected finding but is very encouraging since smaller sized complexes will be better able to diffuse through the tumor mass than larger particles. The formation of small high density complexes is reproducible since it occurred with two separate batches of synthetic 18-A chimera complexes.
To determine the distribution of lipid complexes in various density classes, sequential ultracentrifugation techniques were employed (Lindgren, F. T. et al., In Blood Lipids and Lipoproteins: Quantification, Composition and Metabolism (Nelson, G. J., ed.) pp. 181-274, John Wiley, New York (1972)); this preparative procedure is routinely used in our laboratory and is the classical method for isolation of LDL and other lipoproteins. The first centrifugation was performed at d 1.006 g/ml to isolate large lipid complexes with little peptide; the second spin was done at 1.006-1.063 g/ml to isolate particles in the LDL.size and density range; the third spin at d 1.063-1.21 g/ml isolates particles in the HDL size and density range. The d>1.21 g/ml fraction was isolated to assess how much of the peptide is in the lipid-poor form. All ultracentrifugal isolations use the Beckman TL100 ultracentrifuge for rapid isolations (all fractions can be obtained within 24 hr). […]

[3] = Phospholipid binding of peptides, PC-cholate micelles, cholate dialysis; assay type: physicochemical; settings: overnight incubation, dialysis (cutoff 10,000 MW)
Experimental: The ability of the peptides to bind phospholipids was tested first. Phospholipid binding was used as a rapid screen for a peptide's ability to bind to the surface of a synthetic LDL-like nanoparticle. To make phospholipid complexes with peptides, egg yolk phosphatidylcholine (PC) and the cholate dialysis method were used similarly to what was previously employed to make synthetic nascent HDL particles (Segrest, J. P. et al., J. Lipid Res 33:141-166 (1992)). The PC-cholate micelles were incubated with the peptide overnight and then extensively dialyzed (dialysis membrane cutoff, 10,000 MW) to remove cholate and unbound peptide. The percent bound peptide, i.e., peptide that remains associated with the lipid micelles, was determined for each peptide and was 8%, 15% and 33%, for B-peptide, 11-A chimera and 18-A chimera, respectively. The B-peptide had poor lipid binding ability while the 11-mer peptide has low lipid binding compared to the 18-A chimera.

HeLa cells = assay: Cell killing by MTT assay, HeLa cells; assay type: cell-based, human; settings: concentrations up to 50 μM
Experimental: (§1) sLDL-PO was added to HeLa cells as shown in FIG. 16 and to SF-767 glioblastoma multiforme tumor cells (shown in FIG. 17) at concentrations between 0.05 and 50 μM and cell killing was determined by the MTT assay.

SF-767 cells = assay: Cell killing by MTT assay, SF-767 cells; assay type: cell-based, human; settings: concentrations up to 10 μM
Experimental: as §1
Cells were grown as in Example 3.

DWLKAFYDKVAEKLKEAFRLTRKRGLKLA [18-A chimera]
added synthetic peptide remaining associated with the lipid emulsions [1]: Approximately 85%
density distribution (percent) of 18-A chimera ([2]; d 1.063-1.21 g/ml (size and density range of HDL, small lipid particles)): 58%
density distribution (percent) of 18-A chimera ([2]; d < 1.063 g/ml): 13%
density distribution (percent) of 18-A chimera ([2]; d > 1.21 g/ml (lipid-poor)): 29%
percent bound peptide (peptide that remains associated with the lipid micelles) [3]: 33%

YKLEGTTRLTRKRGLKLATALS [B-peptide, reference compound]
percent bound peptide (peptide that remains associated with the lipid micelles) [3]: 8%

CCCCCCCC/C=C\CCCCCCCC(=O)O[C@@H](C(=O)O[C@H]1C[C@@]2(O)[C@@H](OC(=O)c3ccccc3)[C@@H]3[C@]4(OC(C)=O)CO[C@@H]4C[C@H](O)[C@@]3(C)C(=O)[C@H](OC(C)=O)C(=C1C)C2(C)C)[C@@H](NC(=O)c1ccccc1)c1ccccc1 [Paclitaxel oleate]
HeLa cell killing (HeLa cells): ineffective
initial PO added remained bound to the microemulsion after processing (PC:TO:CO:PO 3:2:1:0.5, centrifuged and dialyzed): 48±3%
increase in incorporation into microemulsion as compared to paclitaxel (equimolar amounts added to initial lipid mixture (FIG. 14A)): 4-5 fold
initial PO concentration at which incorporation appears to saturate (varying PO in the initial lipid mixture (FIG. 13)): around 0.33 mg/mL
SF-767 cell killing (SF-767 cells): ineffective

PALEDLRQGLLPRLTRKRGLKL [11-A chimera]
percent bound peptide (peptide that remains associated with the lipid micelles) [3]: 15%
